{
  "source": "paper PMC12990809",
  "test_in_all_cases": "pulldown",
  "key": {"A1CF (Gallus gallus)": {"molecular_target": "T1, A1CF (Gallus gallus) (UniProt A0A8V0ZPX5)", "T1 sequence": "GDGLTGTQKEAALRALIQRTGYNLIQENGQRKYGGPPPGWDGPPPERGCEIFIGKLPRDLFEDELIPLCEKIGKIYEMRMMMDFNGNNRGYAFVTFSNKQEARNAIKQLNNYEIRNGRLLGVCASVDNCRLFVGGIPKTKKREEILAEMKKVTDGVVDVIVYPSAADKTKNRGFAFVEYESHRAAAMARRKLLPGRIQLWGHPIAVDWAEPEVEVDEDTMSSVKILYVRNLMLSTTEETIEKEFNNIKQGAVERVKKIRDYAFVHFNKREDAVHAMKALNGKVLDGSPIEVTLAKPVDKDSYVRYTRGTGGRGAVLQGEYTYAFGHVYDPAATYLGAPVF", "settings": "20 nM protein, 1.5 uM RNA pool; 20 mM HEPES pH 7.8, 70 mM KCl, 10 mM NaCl, 10% glycerol, 2 mM DTT, 0.1 ug/uL BSA; 30 min, 4 C (protocol of this paper; not …); cited from earlier work"}, "[1]": {"molecular_target": "T2, PK27672.1 (Cannabis sativa) (UniProt A0A7J6HI09)", "T2 sequence": "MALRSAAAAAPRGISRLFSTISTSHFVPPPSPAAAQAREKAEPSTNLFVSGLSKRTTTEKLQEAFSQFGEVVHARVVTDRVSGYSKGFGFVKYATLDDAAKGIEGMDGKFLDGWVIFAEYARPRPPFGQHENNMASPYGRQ", "settings": "20 nM protein, 1.5 uM RNA pool; 20 mM HEPES pH 7.8, 70 mM KCl, 10 mM NaCl, 10% glycerol, 2 mM DTT, 0.1 ug/uL BSA; 30 min, 4 C"}, "[2]": {"molecular_target": "T3, CBG13971 (Caenorhabditis briggsae) (UniProt A8XIX4)", "T3 sequence": "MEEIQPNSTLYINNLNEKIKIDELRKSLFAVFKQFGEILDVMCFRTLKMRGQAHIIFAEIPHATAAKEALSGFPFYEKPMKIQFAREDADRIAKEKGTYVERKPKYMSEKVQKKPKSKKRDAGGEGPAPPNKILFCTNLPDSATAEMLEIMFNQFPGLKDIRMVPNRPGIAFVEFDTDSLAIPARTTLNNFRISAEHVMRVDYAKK", "settings": "20 nM protein, 1.5 uM RNA pool; 20 mM HEPES pH 7.8, 70 mM KCl, 10 mM NaCl, 10% glycerol, 2 mM DTT, 0.1 ug/uL BSA; 30 min, 4 C"}, "G3BP2 (Homo sapiens)": {"molecular_target": "T4, G3BP2 (Homo sapiens) (UniProt Q9UN86)", "T4 sequence": "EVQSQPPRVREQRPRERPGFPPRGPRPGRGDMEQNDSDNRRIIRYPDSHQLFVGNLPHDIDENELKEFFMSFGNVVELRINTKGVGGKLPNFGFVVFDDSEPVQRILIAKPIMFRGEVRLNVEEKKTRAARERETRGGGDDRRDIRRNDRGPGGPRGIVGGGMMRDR", "settings": "20 nM protein, 1.5 uM RNA pool; 20 mM HEPES pH 7.8, 70 mM KCl, 10 mM NaCl, 10% glycerol, 2 mM DTT, 0.1 ug/uL BSA; 30 min, 4 C (protocol of this paper; not …); cited from earlier work"}, "[3]": {"molecular_target": "T5, PK03611.1 N266D (Cannabis sativa) (UniProt A0A7J6FG33)", "T5 sequence": "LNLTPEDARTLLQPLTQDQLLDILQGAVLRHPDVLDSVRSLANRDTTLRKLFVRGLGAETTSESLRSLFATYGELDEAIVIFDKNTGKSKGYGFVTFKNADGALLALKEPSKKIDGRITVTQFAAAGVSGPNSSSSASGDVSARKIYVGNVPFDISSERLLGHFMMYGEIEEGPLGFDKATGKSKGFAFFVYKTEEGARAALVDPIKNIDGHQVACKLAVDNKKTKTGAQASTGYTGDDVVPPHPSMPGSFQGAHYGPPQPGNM", "settings": "20 nM protein, 1.5 uM RNA pool; 20 mM HEPES pH 7.8, 70 mM KCl, 10 mM NaCl, 10% glycerol, 2 mM DTT, 0.1 ug/uL BSA; 30 min, 4 C"}, "[4]": {"molecular_target": "T6, csx1 (Schizosaccharomyces pombe) (UniProt O13759)", "T6 sequence": "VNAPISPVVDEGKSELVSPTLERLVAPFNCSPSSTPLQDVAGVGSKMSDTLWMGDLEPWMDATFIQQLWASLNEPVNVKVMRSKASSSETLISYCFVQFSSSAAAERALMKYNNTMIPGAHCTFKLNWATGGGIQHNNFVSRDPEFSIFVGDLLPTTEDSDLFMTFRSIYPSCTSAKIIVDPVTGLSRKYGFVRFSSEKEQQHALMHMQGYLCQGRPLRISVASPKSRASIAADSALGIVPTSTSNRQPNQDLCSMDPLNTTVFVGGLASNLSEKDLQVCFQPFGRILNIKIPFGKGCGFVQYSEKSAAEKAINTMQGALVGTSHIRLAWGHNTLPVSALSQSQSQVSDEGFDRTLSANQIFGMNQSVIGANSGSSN", "settings": "20 nM protein, 1.5 uM RNA pool; 20 mM HEPES pH 7.8, 70 mM KCl, 10 mM NaCl, 10% glycerol, 2 mM DTT, 0.1 ug/uL BSA; 30 min, 4 C"}, "rbm38 (Danio rerio)": {"molecular_target": "T7, rbm38 (Danio rerio) (UniProt A0A8M1NF18)", "T7 sequence": "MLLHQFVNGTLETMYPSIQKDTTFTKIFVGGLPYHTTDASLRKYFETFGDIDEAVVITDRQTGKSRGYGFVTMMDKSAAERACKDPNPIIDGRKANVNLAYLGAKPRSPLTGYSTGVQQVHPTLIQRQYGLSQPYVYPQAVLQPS", "settings": "20 nM protein, 1.5 uM RNA pool; 20 mM HEPES pH 7.8, 70 mM KCl, 10 mM NaCl, 10% glycerol, 2 mM DTT, 0.1 ug/uL BSA; 30 min, 4 C (protocol of this paper; not …); cited from earlier work"}, "[5]": {"molecular_target": "T8, rnp-2 (Caenorhabditis elegans) (UniProt Q21322)", "T8 sequence": "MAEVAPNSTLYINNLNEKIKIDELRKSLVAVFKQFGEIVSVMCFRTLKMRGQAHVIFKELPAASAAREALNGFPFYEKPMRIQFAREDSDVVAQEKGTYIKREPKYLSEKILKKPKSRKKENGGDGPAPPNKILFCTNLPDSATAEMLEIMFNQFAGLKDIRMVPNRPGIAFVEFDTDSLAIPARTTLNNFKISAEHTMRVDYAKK", "settings": "20 nM protein, 1.5 uM RNA pool; 20 mM HEPES pH 7.8, 70 mM KCl, 10 mM NaCl, 10% glycerol, 2 mM DTT, 0.1 ug/uL BSA; 30 min, 4 C"}, "HNRNPA1 (Homo sapiens)": {"molecular_target": "HNRNPA1 (Homo sapiens) (UniProt P09651)", "sequence (P09651 1-226)": "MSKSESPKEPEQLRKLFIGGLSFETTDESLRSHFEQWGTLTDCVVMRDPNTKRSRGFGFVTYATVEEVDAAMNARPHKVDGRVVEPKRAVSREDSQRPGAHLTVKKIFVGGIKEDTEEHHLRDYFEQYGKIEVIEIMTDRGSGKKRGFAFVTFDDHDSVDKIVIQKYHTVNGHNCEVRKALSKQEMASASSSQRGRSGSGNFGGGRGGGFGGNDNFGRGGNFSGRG", "settings": "20 nM protein, 1.5 uM RNA pool; 20 mM HEPES pH 7.8, 70 mM KCl, 10 mM NaCl, 10% glycerol, 2 mM DTT, 0.1 ug/uL BSA; 30 min, 4 C (protocol of this paper; not …); cited from earlier work"}},
  "data": [
    {"substance": "UAAUUG [RNAcompete motif RNCMPT00291]", "values": [
      {"measurement": "binding signal (z-score (mean of top ten 7-mers))", "setting": "A1CF (Gallus gallus)", "result": 12}
    ]},
    {"substance": "AGUACA [RNAcompete motif RNCMPT00342]", "values": [
      {"measurement": "binding signal (z-score (mean of top ten 7-mers))", "setting": "[1]", "result": 9.79}
    ]},
    {"substance": "GCACUU [RNAcompete motif RNCMPT00323]", "values": [
      {"measurement": "binding signal (z-score (mean of top ten 7-mers))", "setting": "[2]", "result": 11.2}
    ]},
    {"substance": "AGGAUNA [RNAcompete motif RNCMPT00021]", "values": [
      {"measurement": "binding signal (z-score (mean of top ten 7-mers))", "setting": "G3BP2 (Homo sapiens)", "result": 8.75}
    ]},
    {"substance": "UUAUGUG [RNAcompete motif RNCMPT00326]", "values": [
      {"measurement": "binding signal (z-score (mean of top ten 7-mers))", "setting": "[3]", "result": 8.16}
    ]},
    {"substance": "UGUUUU [RNAcompete motif RNCMPT00325]", "values": [
      {"measurement": "binding signal (z-score (mean of top ten 7-mers))", "setting": "[4]", "result": 9.34}
    ]},
    {"substance": "GUGUGUG [RNAcompete motif RNCMPT00283]", "values": [
      {"measurement": "binding signal (z-score (mean of top ten 7-mers))", "setting": "rbm38 (Danio rerio)", "result": 9.92}
    ]},
    {"substance": "GCACUU [RNAcompete motif RNCMPT00301]", "values": [
      {"measurement": "binding signal (z-score (mean of top ten 7-mers))", "setting": "[5]", "result": 27}
    ]},
    {"substance": "UAGGGA [RNAcompete motif RNCMPT00022]", "values": [
      {"measurement": "binding signal (z-score (mean of top ten 7-mers))", "setting": "HNRNPA1 (Homo sapiens)", "result": 10}
    ]}
  ]
}
